Test results as given in PMC10175771.

Target: P. falciparum cytochrome c-2 (PF3D7_1311700), recombinant, hemylated, N-terminal His6 tag (P. falciparum) (UniProt Q8I6T6)
Test: crystal structure

P. falciparum cytochrome c-2 (PF3D7_1311700), recombinant, hemylated, N-terminal His6 tag (from UniProt Q8I6T6 1-159) (natural protein)
stoichiometry N: 2
